The target of the data set is T1, WT DprA (Streptococcus pneumoniae, UniProt Q8DPI7 1-282).
T1 sequence: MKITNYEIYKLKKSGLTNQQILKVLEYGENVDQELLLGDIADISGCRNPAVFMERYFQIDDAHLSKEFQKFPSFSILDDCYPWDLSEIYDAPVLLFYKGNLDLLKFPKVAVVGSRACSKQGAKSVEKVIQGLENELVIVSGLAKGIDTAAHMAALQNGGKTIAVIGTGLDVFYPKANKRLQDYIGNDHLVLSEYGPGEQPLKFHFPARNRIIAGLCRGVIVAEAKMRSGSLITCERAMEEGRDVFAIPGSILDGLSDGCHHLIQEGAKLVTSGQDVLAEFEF
Put plainly: fluorescence anisotropy; Pull-down: 200 mM NaCl, 20 mM Tris-HCl pH 7.5, 20 C, 30 min; anisotropy buffer not in the material. To be noted: protein: recombinant; chain copies: 2; label: fluorescein.

Regarding TTTTTTTTTTTTTTTTTTTT (ssDNA) [dT20], the binding result is given as “binds”.

Values taken from PMC4066776, “Molecular determinants of the DprA−RecA interaction for nucleation on ssDNA”.
